The results in this text go back to FireProtDB (doi:10.1021/bi00458a027).

The conditions of this data set: Escherichia coli (strain K12), pH 7.8, Urea, CD, Potassium phosphate 10 mM, whole UniProt chain shown.

Where “and” joins values, the source holds several entries; their conditions need not be identical. Identical values can stand only once.

B1: Tryptophan synthase alpha chain wild type, P0A877 (protein)
chain: MERYESLFAQLKERKEGAFVPFVTLGDPGIEQSLKIIDTLIEAGADALELGIPFSDPLADGPTIQNATLRAFAAGVTPAQCFEMLALIRQKHPTIPIGLLMYANLVFNKGIDEFYAQCEKVGVDSVLVADVPVEESAPFRQAALRHNVAPIFICPPNADDDLLRQIASYGRGYTYLLSRAGVTGAENRAALPLNHLVAKLKEYNAAPPLQGFGISAPDQVKAAIDAGAAGAISGSAIVKIIEQHINEPEKMLAALKVFVQPMKAATRS
In the case of B1, where the note is “4 °C”, the denaturant m value is 3.1 kcal/mol/M and 1.9 kcal/mol/M; the “denaturant midpoint (higher = more stable)” value was 1.63 M and 3.17 M; the unfolding free energy is 5 kcal/mol and 6 kcal/mol. For the same protein, for the setting “25 °C”, the denaturant m value worked out at 1.2 kcal/mol/M, the “denaturant midpoint (higher = more stable)” value was determined as 4.18 M and the unfolding free energy worked out at 5 kcal/mol.
